Measured values as given in PMC5693285.

Key:
[1] = tested on: His-VtrAN-ZIPm (Vibrio parahaemolyticus RIMD2210633?; ZIP from Saccharomyces cerevisiae GCN4); assay: EMSA; details: EMSA: 10 mM Tris-HCl pH 7.5, 100 mM KCl, 1 mM DTT, 1 mM EDTA, 0.2% NP-40, 10% glycerol, 100 ng/ml BSA; 4 nM probe, protein 0-400 nM; 30 min room temperature; 6%
[2] = tested on: His-VtrAN (Vibrio parahaemolyticus RIMD2210633?); assay: EMSA; details: EMSA: 10 mM Tris-HCl pH 7.5, 100 mM KCl, 1 mM DTT, 1 mM EDTA, 0.2% NP-40, 10% glycerol, 100 ng/ml BSA; 4 nM probe, protein 0-400 nM; 30 min room temperature; 6%

## AGGGGCTATGCCCCTTTTATTTTTAATTCTCAAAGTTATCTTTTGAAGGTAATGGGGTATTTTTGAATAACTACATTGGGGTGTGATTGTCCTCGTTGTTTTTTAGTTTTTTTTAGGTTTTTTTTGCTGCTTTTCACGGTTTTATCATCACTTTATTCCGTGATTTAGCAAAATTCTTTTTAGGAGTTTGAAGTGGTCGTCTTCATTACCACGGCTTTAAGAACAGAGACGTTCTCTTTTAATCACAATAAATAACGAAGAAAAACTGTGAAAAGGGCTCAGCG (double strand) [vtrB upstream region 284 bp]
[1]
  binding: > 400 nM
[2]
  binding: > 400 nM
